Experimental data published in patent publication US10499655B2, “Reagents and methods for inhibiting or disrupting biofilm” (priority 2015, dated 2019).

B1: PsIG protein: Protein from Pseudomonas aeruginosa PAO1, purified PsIG (31-442) of SEQ ID NO.: 2, expressed in E. coli, 47 kDa (protein, listed as Pseudomonas aeruginosa)
chain: EIQVLKAPRAVVWKDFLGVNAQFLWFSPERYNKQIDRLQDLGLEWVRLDLHWDRLETAEDQYQLASLDQLVKDLEARQLKSVFYLVGSARFITTAPFYSPFQDQYPPRDPEVFARRMAMLSQRYPSVAAWQVWNEPNLIGFWRPKADPEGYAKLLQASTIALRMVDPEKPVVSAGMAFFSEMPDGRTMFDALGHLGVESLGTIATYHPYTQLPEGNYPWNLDFVSHANQINRALRNAGVPAIWSTEWGWSAYKGPKELQDIIGVEGQADYVLRRLALMSALDYDRIFLFTLSDLDQRASVRDRDYGLLDLDANPKPVYLALQRFLKVTGPKLRPADPPVTEDLPDGSFSIGWTREDGRNVWLFWSARGGNVRLPKLKEATLHDPLSGKVTPLSGSDGLEVPVKSSLQMLVWE

Tests used:
Pseudomonas aeruginosa [1] = test: MIC test strips on bacteria dispersed from a biofilm by PsIG versus planktonic bacteria; type: cell-based; conditions: 24-hour biofilm treated with PsIG 1 hour; MIC read after 16 hours at 37 degrees centigrade
Method: Planktonic Pseudomonas aeruginosa may be cultured for 24 hours with shocking in LBNS medium, and 0.2 ml of such culture may be used as control. As shown in FIGS. 8(a) and 8(c), a control group have shown measurement of MIC values of TOB, CIP by a planktonic bacteria. FIGS. 8(b) and 8(d) have shown measurement of MIC values of TOB, CIP by bacteria cells dispersed from the biofilm after the treatment of the PsIG protein.

[2] = test system: biofilm of Pseudomonas aeruginosa; test: Inhibition of biofilm formation, crystal violet staining, 96-well plate; type: cell-based
Text: (§1) The biomass of the biofilm has been detected by a crystal violet staining method. The method including: discarding cultures (bacteria that are not attached on wells.) in the wells, and washing three times. Then, the biofilm may be stained with 0.1% crystal violet, and washed three times, then the crystal violet combined in the biofilm may be dissolved with 30% acetic acid, and the value of OD560 thereof (for example, the concentration of the crystal violet) may be measured by a spectrophotometer to measure the biomass of the biofilm was measured. PAO1-derived PsI polysaccharide negative strain (PAO1, A psi) may be used as a negative control, and PAO1-derived PsI polysaccharide inducible strain (PAO1, PBAD-psI) (arabinose used as an inducer) may be used as positive control.
A fresh single colony of Pseudomonas aeruginosa on the LBNS plate may be inoculated in LBNS liquid medium, carried out shake culture at 200 rpm at 37 degrees centigrade for 12 hours, and then inoculated in Jensen's medium with 1% inoculum dose, at the same time, different concentrations of PsIG protein may be added. After static culture in a 96-well plate at 30 degrees centigrade for 24 hours, liquid cultures were discarded and the biofilm may be stained with the crystal violet, and biomass of the biofilm was detected, in which specific operations may refer to the steps in Example 1. […]

[3] = test system: formed biofilm of Pseudomonas aeruginosa; test: Disruption of formed biofilm, crystal violet staining; type: cell-based
Text: as §1
A fresh single colony of Pseudomonas aeruginosa on the LBNS plate may be inoculated in LBNS liquid medium, carried out shake culture at 200 rpm at 37 degrees centigrade for 12 hours, and then inoculated in Jensen's media with 1% inoculum dose, with static culture in a 96-well plate at 30 degrees centigrade for 24 hours. Cultures may be discarded and the biofilm (surface-attached bacteria) was washed with 0.8% physiological saline for three times. 100 μl Jensen's media containing 1 nM PsIG may be added into wells and the biofilm treated for 5 or 30 minutes. Then, biomass of the treated biofilm may be detected by the crystal violet staining method, in which specific operation steps of the crystal violet staining method may refer to Example 2.
At the same time, Jensen's media without addition of PsIG may be used as a control group.
A fresh single colony of Pseudomonas aeruginosa on the LBNS plate may be inoculated in LBNS liquid medium, carried out shake culture at 200 rpm at 37 degrees centigrade for 12 hours, and then inoculated in Jensen's media with 1% inoculum dose, and carried out static culture in a 96-well plate at 30 degrees centigrade for 24 hours. Cultures were discarded and the biofilm was washed with 0.8% physiological saline for three times. 100 μl Jensen's media containing 50 nM PsIG protein was added and the biofilm was treated for different times. Then, biomass of the treated biofilms may be tested by a crystal violet staining method, in which specific operation steps of the crystal violet staining method may refer to Example 2.

[4] = test system: biofilm of Pseudomonas syringae; test: Inhibition of biofilm formation, crystal violet staining; type: cell-based; conditions: 50 nM PsIG
Pseudomonas aeruginosa [5] = test: Inhibitory zone on LBNS plate with filter paper; type: cell-based; conditions: 50 nM PsIG; 24 hours at 37 degrees centigrade
Method: As shown in FIG. 9(a), four experimental groups may be set for buffer; 50 nM PsIG; tobramycin (TOB); combination of TOB and PsIG, respectively. Experiment 2:
As shown in FIG. 9(b), four experimental groups may be set for buffer; 50 nM PsIG; ciprofloxacin (CIP); combination of CIP and PsIG, respectively.

Caco2 = conditions: PsIG treatment 12 hours
Text: (§2) Cytotoxicity of a PsIG protein may be detected by human colon epithelial cell line Caco2 and HT-29.

HT-29 = conditions: PsIG treatment 12 hours
Text: as §2

PAO1 biofilm = test: Clearance of PsIG-treated biofilm by macrophages, CFU count; type: cell-based, Pseudomonas aeruginosa; conditions: biofilm treated with PsIG 1 hour, then macrophages 2 hours; versus controls without PsIG
Method: The PAO1 biofilm cultured on glass coverslips for 24 hours was treated with PsIG and co-incubated with macrophages, and then scraped and resuspended in 1 ml of physiological saline to quantify colony formation unit (CFU). The mean and SD values of CFU obtained by three repeated experiments were shown in the figure and T test (*, P<0.01) was performed for different experimental groups.
The PAO1 biofilm cultured on glass coverslips for 24-hours may be treated with the PsIG protein for 1 hour, and then incubated with macrophages for 2 hours, and remaining biofilm may be scraped and resuspended in 1 ml of physiological saline for colony formation unit (CFU).

[6] = test system: biofilm of Pseudomonas aeruginosa on implants; test: Mouse implant infection model; type: in vivo; conditions: mouse peritoneum, local treatment, 24 hours; 50 nM PsIG and/or 50 mg kg-1 tobramycin
Method: FIG. 12 illustrates a mouse implant infections model. PsIG improves host clearance of implant biofilms and show combinatory effect with Tob in eradication of implant biofilms in vivo. The horizontal dashed line represents a detection limit of the experiment, which is shown as mean (*P<0.01) of the biofilm counts in five mice.
Implants coated by the biofilm of Pseudomonas aeruginosa may be inserted into mouse peritoneum and the following treatments may be performed locally: 50 nM PsIG treatment alone; 50 mg kg-1 tobramycin treatment alone; the 50 nM PsIG and the 50 mg kg-1 tobramycin co-treatment. After culture in vivo for 24 hours, mice may be sacrificed so as to harvest the implants, and the implants may be removed out and counted on LB plates after homogenization. The number of Pseudomonas aeruginosa on the implants may be tabulated with a format of CFU/ml.

[7] = test system: L4-stage Caenorhabditis elegans; test: Toxicity of PsIG-dispersed biofilm bacteria to C. elegans; type: in vivo; conditions: co-incubated 25 degrees centigrade, 48 hours; live/dead nematodes
Method: The experiment may be carried out by using C. elegans as a host model.
Two experimental groups may be set for Experimental group 1 and Experimental group 2, respectively.
Experiment group 1: the bacterial cells collected from a PsIG-treated bacterial biofilm (a biofilm of Pseudomonas aeruginosa) may be co-incubated with L4-stage Caenorhabditis elegans.
Experimental group 2: co-incubation the planktonic culture of Pseudomonas aeruginosa grown for 24 hours may be co-incubated L4-stage Caenorhabditis elegans.
Experimental group 1 and Experimental group 2 were placed in 96-well plates respectively and co-incubated at 25 degrees centigrade for 48 hours. […] Each group was repeated for three times, the results are expressed with a format of the mean value±SD value.

[8] = Degradation of PsI polysaccharide in vitro, immunoblotting; type: biochemical, Pseudomonas aeruginosa; conditions: 50 nM PsIG
Text: Preparation and purification of PsI polysaccharide may be carried out with reference to published document (Molecular Microbiology 2009; 73:622-638, titled Genetic and biochemical analyses of the Pseudomonas aeruginosa PsI exopolysaccharide reveal overlapping roles for polysaccharide synthesis enzymes in PsI and LPS production, written by Byrd M S, Sadovskaya I, Vinogradov E et al.)
The standard curve may be prepared according to the following method: PsI polysaccharide prepared by the above method may be diluted 10 times with gradient and the PsI polysaccharide may be detected by immunoblotting.
To Solution 1 (PBS phosphate buffer), PsI polysaccharide and 50 nM of the PsIG protein obtained in Example 16 may be added to obtain Reaction system 1, the concentration of PsI polysaccharide in reaction system 1 may be 4 mg/ml, and the concentration of PsIG protein may be 50 nM. The eight same reaction systems 1 may be incubated at 20 degrees centigrade, 25 degrees centigrade, 30 degrees centigrade, 37 degrees centigrade, 40 degrees centigrade, 45 degrees centigrade, 50 degrees centigrade and 55 degrees centigrade for one hour, respectively, and then remaining PsI polysaccharide may be detected with a PsI polysaccharide antibody (the PsI polysaccharide antibody may be obtained by using PsI polysaccharide as immunogen) by immunoblotting. […]

[9] = test system: mouse macrophages (RAW264.7)

| Molecule | MIC values for bacteria dispersed from biofilms by PsIG compared with planktonic cells (Pseudomonas aeruginosa [1]) | inhibitory rate on biofilm formation ([2]; PsIG protein at 1 nM, static culture 30 degrees centigrade, 24 hours) | inhibition of formation of the biofilm ([2]; concentration l0nm-50nm, static culture 24 hours) | reduction of biomass of formed biofilm ([3]; 1 nM PsIG, treated 30 minutes, 24-hour biofilm) | effect on biomass of formed biofilm ([3]; 1 nM PsIG, treated five minutes, 24-hour biofilm) | reduction of biomass of formed biofilm ([3]; 50 nM PsIG, treated 10 minutes, 24-hour biofilm) | effect on biomass of formed biofilm ([3]; 50 nM PsIG, treated 30 minutes, 24-hour biofilm) | effect on biomass of formed biofilm ([3]; 50 nM PsIG, treated five minutes, 24-hour biofilm) | effect on biomass of formed biofilm ([3]; 50 nM PsIG, treated more than 30 minutes) | inhibitory effect on biofilm [4] | inhibitory zone, PsIG alone (Pseudomonas aeruginosa [5]) | effect on activity of colon epithelial cells (MTT) (Caco2) | effect on activity of colon epithelial cells (MTT) (HT-29) | number of remaining bacteria of the biofilm (PAO1 biofilm) | number of bacteria on the implants [6] | toxicity of PsIG-dispersed biofilm bacteria versus planktonic bacteria [7] | temperature of highest degradation rate of PsI polysaccharide ([8]; 4 mg/ml PsI, one hour) | reduction of amount of PsI polysaccharide compared with untreated control ([8]; 30 degrees centigrade, 1 hour) | toxic effects on macrophages [9] |
| --- | --- | --- | --- | --- | --- | --- | --- | --- | --- | --- | --- | --- | --- | --- | --- | --- | --- | --- | --- |
| NC[C@H]1O[C@H](O[C@H]2[C@H](O)[C@@H](O[C@H]3O[C@H](CO)[C@@H](O)[C@H](N)[C@H]3O)[C@H](N)C[C@@H]2N)[C@H](N)C[C@@H]1O [tobramycin] | lower |  |  |  |  |  |  |  |  |  |  |  |  |  |  |  |  |  |  |
| O=C(O)c1cn(C2CC2)c2cc(N3CCNCC3)c(F)cc2c1=O [ciprofloxacin] | lower |  |  |  |  |  |  |  |  |  |  |  |  |  |  |  |  |  |  |
| B1 |  | 50% | significantly inhibit | 50% | no effect | 50% | reduced to a level similar to the PsI polysaccharide-negative strain | significantly reduced | no more significant reduction | same inhibitory effects | does not produce inhibitory zone | no effect | no effect | least | ≈ 10^3 CFU/mL | no significant difference in toxicity | 45 degrees centigrade | 75% | not shown any toxic effects |
